B1: 2077-26-1 (antibody, V domains shown)
VH: EVQLQQSGPDLVKPGASMKLSCKASGYSFTGYTMNWVKQSHGKNLEWIGLFNPYNGGPSYNQKFKGKATLTVDKSSSTAYMELLSLTPEDSAVYYCARLRYYGIGDDFFDYWGQGTTLTVSS
VL: DIVMTQSHKFMSTSVGDRVSITCKASQDVGTAVAWYQEKPGQSPKLLIYWASTRHTGVPDRFTGSGSGTDFTLTISNVQSEDLAYYFCQQYSNYPYTFGGGTKLEIK
B2: 2077-28-2 (antibody, V domains shown)
VH: EVQLQQSGPELVKPGASMKISCKASGYSFTGYTMNWVKQSHGKNLEWIGLFNPYNGGATYNQRFKGKATLTVDKSSSTAYMDLLSLTSEDSAVYYCTRLRKYGIGDDFFDYWGQGTTLTVSS
VL: DIVMTQSHKFMSTSVGDRVSITCKASQDVGTAVAWYQQKPGQSPKLLIYWASTRHTGVPDRFTGSGSGTDFTLTISNVQSEDLADYFCQQYSTYTYTFGGGTKLEIK
B3: NEG447A (antibody, human IgG1, lambda, V domains shown)
VH: QVQLQESGPGLVKPSETLSLTCTVSGGSISRDYWSWVRQPPGAGLEWIGNIYYSGSTNYNPSLKSRVTISVATNKKQFSLKLTSVTAADTAVYYCARVPGCSSTSCIDGWFDPWGQGILVTVSS
VL: QSVLTQPPSVSAAPGQKVTISCSGSSSNIGNTYVSWYQQLPGTAPKLLIYDNNKRPSGIPDRFSGSKSGTSATLGITGLQTGDEADYYCGTWDSSLSAWVFGGGTRLTVLG
B4: P8D11 (antibody, human IgG1, lambda)
heavy: not shown
light: QSVLTQPPSVSVAPGKTARITCGGDNIGSRPVHWYQQKPGQAPILVVYDDSNRPSGIPERFSGSNSGNTATLTISRVEAGDEADYYCQVWSSSTDHPFGGGTKVTVLGQPKAAPSVTLFPPSSEELQANKATLVCLISDFYPGAVTVAWKADSSPVKAGVETTTPSKQSNNKYAASSYLSLTPEQWKSHRSYSCQVTHEGSTVEKTVAPTECS

Assays:
JCV VLPs = molecular target: T1, JCV VLPs (JC virus (JCV), UniProt P03089 1-354); assay: ELISA on plate-coated JCV VLPs (OD 450 nm)
T1 construct: also called JC virus VLPs; JCV consensus

[1] = molecular target: VP1 on chimeric infectious BKV serotype II (BK virus (BKV) serotype II, UniProt P14996 1-362); assay: cell-based or functional assay
[2] = molecular target: VP1 of the pooled BKV serotype I resistance-associated variant (RAV) virus with 20 amino acid changes (BK virus (BKV) serotype I); assay: cell-based or functional assay

Row | Binder | EC50 (read off the curve) (JCV VLPs) [pM] | other results
1 | B1 | ~70 | –
2 | B2 | ~80 | –
3 | B3 | – | EC90 of neutralisation, fold change [1]: ~8 fold
4 | B4 | – | shift in EC50 of neutralisation against wild-type virus [2]: 3.9 fold
